What was measured:
Settings in all cases: tags: GST
[1] = molecular target: T1, UP1 (shortened hnRNP A1), GST fusion (UniProt P09651 P09651:1-196); experiment: EMSA
[2] = molecular target: T1, UP1 (shortened hnRNP A1), GST fusion; experiment: EMSA; remark: listed apart in the source
Procedure: (§1) A shortened version of recombinant hnRNP A1 (GST-UP1) was used for testing binding affinity. Each labeled oligo was incubated with increasing amounts of GST-UP1 (0.5 and 1 μg). The TS10 oligo is a telomeric DNA oligo of 60 nt containing nine high-affinity A1 binding sites. Complexes were fractionated in a 5% acrylamide gel. The position of the free oligos and complexes is shown. (C) Pre-mRNAs were incubated in a HeLa extract for 2 hours in the presence of increasing amounts of oligonucleotides (0.01, 0.02, 0.05, 0.1, 0.5 pmoles in 12.5 μl reaction). The RNA was extracted and fractionated on a denaturing 11% acrylamide gel. The position of the pre-mRNAs, splicing intermediates and products is indicated. (D) Based on the results obtained in panel C, the relative use of proximal and distal splicing was compiled, expressed as a ratio of percentages and plotted relative to the amount of oligo used. (E) Labeled pre-mRNAs were incubated as above in the presence of increasing amounts of oligonucleotides (0.01, 0.02, 0.05, 0.1, 0.5 pmoles in 12.5 μl reaction). The RNA was extracted and fractionated on a denaturing 11% acrylamide gel. The position of the pre-mRNAs, splicing intermediates and products is indicated. (F) Labeled pre-mRNAs were incubated with increasing amounts of oligonucleotides (0.01, 0.02, 0.05, 0.1, 0.5 pmoles in 12.5 μl reaction). […]

[3] = molecular target: T1, UP1 (shortened hnRNP A1), GST fusion; experiment: EMSA; best binder; 0.5 and 1 ug GST-UP1
Procedure: as §1

[4] = molecular target: T1, UP1 (shortened hnRNP A1), GST fusion; experiment: EMSA; best UP1 binder (printed X4-A1W)
[5] = molecular target: T1, UP1 (shortened hnRNP A1), GST fusion; experiment: EMSA; text prints X-M4A1W as non-binder, evidently X-M4A1M

T1 sequence (P09651 1-196, one chain of several): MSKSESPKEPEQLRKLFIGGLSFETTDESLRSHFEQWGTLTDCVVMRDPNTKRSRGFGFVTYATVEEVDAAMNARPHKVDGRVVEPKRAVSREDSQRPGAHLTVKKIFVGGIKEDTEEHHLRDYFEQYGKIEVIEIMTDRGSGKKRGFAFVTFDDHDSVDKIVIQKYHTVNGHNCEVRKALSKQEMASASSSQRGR

GCCGCCGUUCUCCUGGAUCC (ssRNA, 2'-OMe) [X-M4]
binding result [1]: no binding

UACCACCGCCAAAGCCGCCU (ssRNA) [C5-M4]
binding result [2]: no binding

UAUGAUAGGGACUUAGGGUGUACCACCGCCAAAGCCGCCU (ssRNA) [C5-M4A1W]
binding result [3]: binds

UAUGAUACGCACUUACGCUGUACCACCGCCAAAGCCGCCU (ssRNA) [C5-M4A1M]
binding result [2]: no binding

UAUGAUAGGGACUUAGGGUGGCCGCCGUUCUCCUGGAUCC (ssRNA, 2'-OMe) [X-M4A1W]
binding result [4]: binds

UAUGAUACGCACUUACGCUGGCCGCCGUUCUCCUGGAUCC (ssRNA, 2'-OMe) [X-M4A1M]
binding result [5]: no binding

UUCUUACCCAGCCGCCGUUC (ssRNA, 2'-OMe) [X-5]
binding result [1]: no binding

Source: patent publication US20060058253, “Methods to reprogram splice site selection in pre-messenger rnas” (published 2006)
